Measured values from patent publication US20230242671A1 (Eli Lilly, published 2023).
Where a chain is given by its changes, count along the chain named.

T1: human TIGIT-ECD (human, UniProt Q495A1 22-141)
T1 construct: extracellular domain
T1 sequence (looked up): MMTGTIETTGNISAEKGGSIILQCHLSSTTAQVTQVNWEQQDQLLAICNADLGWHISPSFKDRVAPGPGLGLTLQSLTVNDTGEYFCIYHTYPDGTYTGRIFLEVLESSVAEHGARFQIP

B1: cMet-BAH10 IgG1 heteromab (RE on cMet heavy chain Fc region only) (bispecific antibody)
heavy 1: EVQLVESGGGLVQPGGSLRLSCAASGYTFTSYWLHWVRKAPGKGLEWVGMIDPSNSDTRFNPEFKDRFTISADTSKNTAYLQMNSLRAEDTAVYYCATYRSYVTPLDYWGQGTLVTVSSASTKGPSVFPLAPSSKSTSGGTAALGCLVKDYFPEPVTVSWNSGALTSGVATGPAVLQSSGLYSLSSVVTVPSSSLGTQTYICNVNHKPSNTKVDKKVEPKSCDKTHTCPPCPAPEAAGGPSVFLFPPKPKDTLMISRTPEVTCVVVDVSHEDPEVKFNWYVDGVEVHNAKTKPREEQYNSTYRVVSVLTVLHRDWLNGEEYKCKVSNKALPAPIEKTISKAKGQPREPQVYTLPPSREEMTDNQVSLTCLVKGFYPSDIAVEWESNGQPENNYKTTPPVLMSDGSFFLASKLTVDKSRWQQGNVFSCSVMHEALHNHYTQKSLSLSPGK
light 1: RIQMTQSPSSLSASVGDRVTITCKSSQSLLYTSSQKNYLAWYQDKPGKAPKLLIYWASTRESGVPSRFSGSGSGTDFTLTISSLQPEDFATYYCQQYYAYPWTFGQGTKVEIKRTVAAPSVFIFPPSDEQLKSGTASVVCYLNNFYPREAKVQWKVDNALQSGNSQESVTEQDSKDSTYSLWSTLTLSKADYEKHKVYACEVTHQGLSSPVTKSFNRGEC
heavy 2: QVQLVQSGAEVKKPGSSVKVSCKASGYTFTTYYLHWVRYAPGQGLEWMGWIYPGNVHAQYNEKFKGRVTITADKSTSTAYMELSSLRSEDTAVYYCARSWEGFPYWGRGTTVTVSSASTKGPSVFPLAPCSKSTSGGTAALGCLVKDYFPEPVTVSWNSGALTSGVHTFPAVLQSSGLYSLSSVVTVPSSSLGTQTYICNVNHKPSNTKVDKKVEPDSGDKTHTCPPCPAPEAAGGPSVFLFPPKPKDTLMISRTPEVTCVVVDVSHEDPEVKFNWYVDGVEVHNAKTKPREEQYNSTYRVVSVLTVLHQDWLNGKEYKCKVSNKALPAPIEKTISKAKGQPRRPRVYTLPPSREEMTKNQVSLVCLVKGFYPSDIAVEWESNGQPENNYKTTPPVLDSDGSFFLYSVLTVDKSRWQQGNVFSCSVMHEALHNHYTQKSLSLSPGK
light 2: DIQMTQSPSSLSASVGDRVTITCKASQNVGINVAWYQRKPGDAPKSLISSASYRYSGVPSRFSGSGSGTDFTLTISSLQPEDFATYFCQQYDTYPFTFGQGTKVEIKRTVAAPSVFIFPPSKEQLKSGTASVVCLLNNFYPREAKVQWKVDNALQSGNSQESVTEQDSKDSTYSLSSTLTLSKADYEKHKVYACEVTHQGLSSPVTKSFNRGEC
notes: also called cMet-BAH10 IgG1 heteromab (with RE HC Fc format on cMet arm only)
B2: cMet mAb (RE on both HCs) (antibody, human IgG1, kappa, L234A L235A)
heavy: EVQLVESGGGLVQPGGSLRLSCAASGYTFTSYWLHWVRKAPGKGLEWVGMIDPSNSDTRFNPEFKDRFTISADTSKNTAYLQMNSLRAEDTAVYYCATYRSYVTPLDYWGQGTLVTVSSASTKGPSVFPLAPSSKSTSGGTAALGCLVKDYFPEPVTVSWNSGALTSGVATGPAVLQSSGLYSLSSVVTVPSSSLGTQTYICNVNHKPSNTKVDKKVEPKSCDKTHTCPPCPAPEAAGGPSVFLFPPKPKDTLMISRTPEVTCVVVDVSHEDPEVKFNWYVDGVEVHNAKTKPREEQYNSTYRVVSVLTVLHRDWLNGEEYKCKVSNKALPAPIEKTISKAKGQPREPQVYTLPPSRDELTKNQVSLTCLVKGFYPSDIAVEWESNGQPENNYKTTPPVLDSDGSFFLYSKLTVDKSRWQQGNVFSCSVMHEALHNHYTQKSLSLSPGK
light: B1 light 1
notes: IgG1 / kappa; also called cMet parental mAb (with RE HC Fc format on both HCs)
B3: PD-1-TIGIT parental IgG1 heteromab (bispecific antibody)
heavy 1: QVQLVQSGAEVKKPGSSVKVSCKASGGTFSSYAISWVRYAPGQGLEWMGLIIPSFDTAGYAQKFQGRVAITVDESTSTAYMELSSLRSEDTAVYYCARAEHSSTGTFDYWGRGTLVTVSSASTKGPSVFPLAPSSKSTSGGTAALGCLVADYFPEPVTVSWNSGALTSGVHTFPAVLQSSGLYSLASVVTVPSSSLGTQTYICNVNHKPSNTKVDERVEPKSCDKTHTCPPCPAPEAAGGPSVFLFPPKPKDTLMISRTPEVTCVVVDVSHEDPEVKFNWYVDGVEVHNAKTKPREEQYNSTYRVVSVLTVLHQDWLNGKEYKCKVSNKALAAPIEKTISKAKGQPREPQVYTLPPSREEMTDNQVSLTCLVKGFYPSDIAVEWESNGQPENNYKTTPPVLMSDGSFFLASKLTVDKSRWQQGNVFSCSVMHEALHNHYTQKSLSLSPGK
light 1: DIQMTQSPSSVSASVGDRVTITCRASQGISSWLAWYQRKPGDAPKLLISAASSLQSGVPSRFSGSGSGTDFTLTISSLQPEDFATYYCQQANHLPFTFGGGTKVEIKRTVAAPSVFIFPPSDKQLKSGTARVVCLLNNFYPREAKVQWKVDNALQSGNSQESVTEQDSKDSTYSLISTLTLSKADYEKHKVYACEVTHQGLSSPVTKSFNRGEC
heavy 2: EVQLVESGGGLVQPGGSLRLSCAASGFDFSSYGVPWVRKAPGKGLEWVGYIDPIFGPTYYADEVKGRFTISADDSKNSLYLQMNSLKTEDTAVYYCARDYSYGYAYALDIWGQGTLVTVSSASTKGPSVFPLAPSSKSTSGGTAALGCLVKDYFPEPVTVSWNSGALTSGVHTFPAVLQSSGLYSLSSVVTVPSSSLGTQTYICNVNHKPSNTKVDKRVEPKSCDKTHTCPPCPAPEAAGGPSVFLFPPKPKDTLMISRTPEVTCVVVDVSHEDPEVKFNWYVDGVEVHNAKTKPREEQYNSTYRVVSVLTVLHQDWLNGKEYKCKVSNKALAAPIEKTISKAKGQPRRPRVYTLPPSREEMTKNQVSLVCLVKGFYPSDIAVEWESNGQPENNYKTTPPVLDSDGSFFLYSVLTVDKSRWQQGNVFSCSVMHEALHNHYTQKSLSLSPGK
light 2: RIVMTQTPLSLSVTPGQPASISCQASQRISPYLAWYLDKPGQPPQLLISRASKLASGVPDRFSGSGSGTDFTLKISRVEAEDVGVYYCQSYYVHTSSGYAFGGGTKVEIKRTVAAPSVFIFPPSDEQLKSGTASVVCLLNNFYPREAKVQWKVDNALQSGNSQESVTEQDSKDSTYSLSSTLTLSKADYEKHKVYACEVTHQGLSSPVTKSFNRGEC
notes: Unmodified control heteromab; also called PD-1-TIGIT IgG1 heteromab; PD-1-Tigit IgG1 heteromab
B4: PD-1-TIGIT IgG1 heteromab (DK on PD-1 light chain Fab region only) (bispecific antibody)
heavy 1: B3 heavy 1
light 1: B3 light 1 with V110D, E143K
heavy 2: B3 heavy 2
light 2: B3 light 2
notes: also called PD-1-Tigit IgG1 heteromab (with DK LC Fab region on PD-1 arm only)
B5: PD-1-TIGIT IgG1 heteromab (DKK on PD-1 light chain Fab region only) (bispecific antibody)
heavy 1: B3 heavy 1
light 1: B3 light 1 with V110D, E143K, Q199K
heavy 2: B3 heavy 2
light 2: B3 light 2
notes: also called PD-1-Tigit IgG1 heteromab (with DKK LC Fab region on PD-1 arm only)
B6: PD-1-TIGIT IgG1 heteromab (KK on PD-1 light chain Fab region only) (bispecific antibody)
heavy 1: B3 heavy 1
light 1: B3 light 1 with E143K, Q199K
heavy 2: B3 heavy 2
light 2: B3 light 2
notes: also called PD-1-Tigit IgG1 heteromab (with KK LC Fab region on PD-1 arm only)
B7: PD-1-TIGIT IgG1 heteromab (ADK on PD-1 light chain Fab region only) (bispecific antibody)
heavy 1: B3 heavy 1
light 1: B3 light 1 with T109A, V110D, Q199K
heavy 2: B3 heavy 2
light 2: B3 light 2
notes: also called PD-1-Tigit IgG1 heteromab (with ADK LC Fab region on PD-1 arm only)

These binders were tested against T2, Protein A (UniProt P38507 37-327, biotin (site not stated)) (assay: ELISA, Biotin-Protein A).
T2 construct: Reagent; also called Biotin-Protein A; Protein A ligand
Description: (§1) Binding of the heavy chain Fc region formats of Table 1b for exemplified IgG heteromabs to Protein A ligand may be assessed via ELISA. Briefly, 96-well flat bottom Elisa plates are coated with 2 ug/mL goat anti-human-kappa protein at 100 ul/well and incubated overnight at 4° C. The following day, plates are washed 3× with wash buffer 0.05% PBS-Tween 20 (PBS-T)) and blocked for 1 hr with blocking buffer (casein, 200 µL/well) at room temperature (RT). Plates are washed 3× with wash buffer, and binding proteins (as shown in Table 4) are added to individual wells at 10 μg/mL and serially diluted 1:3, at a volume of 100 uL/well in PBS-T. Plates are incubated at RT for 1 hr, and washed 3× with wash buffer. Biotin-Protein A at 0.5 ug/ml is added at 100 uL/well and plates are incubated for 1 hr at RT, washed 3×, and 100 uL/well of streptavidin labeled alkaline phosphatase (SA-AP) is added to each well. Plates are incubated 30 min at RT. Plates are then washed 3×, and 100 uL/well of p-Nitrophenyl Phosphate, Disodium Salt (PNAP)(Thermo Fisher Scientific) substrate is added. Reactions are stopped and optical density is measured using a colorimetric microplate reader set to 405 nm.

For B1, the “fold decrease in binding against cMet-BAH10 IgG1 heteromab” value was about 1.2 fold.

For B2, the “fold decrease of binding affinity against parental” value was about 2 fold.

What follows are binders tested against T3, CaptureSelect Kappa XL ligand (assay: CaptureSelect Kappa XL affinity column after Protein A).
T3 construct: also called Biotin-KappaXL; Kappa XL column
From the text: Multispecific binding proteins of the present disclosure, in clarified medium or recovered from Protein A purification, may be subjected to a second purification step using a CaptureSelect™ Kappa XL (Thermo Fisher Cat. #494321001) pre-packed affinity column. Briefly, multispecific binding proteins of the present disclosure recovered from Protein A purification are subjected to a Kappa XL affinity column which has been equilibrated with a compatible buffer, such as phosphate buffered saline (PBS) at pH 7.4. The column is then washed to remove nonspecific binding components. The bound multispecific binding protein is eluted, for example, by pH gradient (such as 20 mM Tris buffer pH 7.0 to 10 mM sodium citrate buffer pH 3.0). Binding protein fractions are detected, such as by UV absorbance or SDS-PAGE, and then are pooled.
Percent flow through (% F T) and percent elution of exemplified heteromabs of the present disclosure following kappa XL column purification essentially as described herein is assessed. Briefly, various antibody formats (as set forth in Table 3) are subjected to Kappa XL column. Flow through material is considered to comprise of impurities, such as homodimers, or misassembled antibodies, whereas the Kappa XL ligand bound material (elution material) is considered to be the correctly assembled bispecific antibody.

Compared with B3, B4 is lower in “% Elution” value: 99.6% for the first, 73.5% for the second.

First: B5
Second: B6
The “% Elution” value of the first is higher: 80.7% for the first, 74.8% for the second.

In the case of B7, the “% Elution” value is reported as 78.2%.

First: B3
Second: B4
The “% Flow Through (FT)” value of the first is lower: 0.44% for the first, 26.6% for the second.

First: B5
Second: B6
The “% Flow Through (FT)” value of the first is lower: 19.3% for the first, 25.2% for the second.

With B7 the “% Flow Through (FT)” value was 21.8%.

These binders were tested against T1, human TIGIT-ECD (assay: ELISA, antibody at 1 µg/mL captured by anti-human-Fc, antigen titrated).
Description: (§2) Binding affinity of exemplified multispecific binding proteins provided herein is assessed via ELISA. Briefly, 384-well flat bottom Elisa plates are coated with 1 ug/mL anti-human-Fc protein at 20 ul/well and incubated overnight at 4° C. The following day, plates are washed 3× with wash buffer (0.05% PBS-Tween 20) and blocked for 1 hr with blocking buffer (casein, 60 μL/well) at room temperature (RT). Plates are washed 3× with wash buffer, and binding proteins as shown in Table 10 are added at 1 μg/mL in triplicates at 20 uL/well in DPBS (Dulbecco's HyClone). Plates are incubated at RT for 1 hr, washed 3× with wash buffer, and titrated antigens are added at 20 ul/well and incubated for 60 min at RT. Plates are washed 3×, and 20 uL/well NAAP substrate is added and incubated for 20 min. Plates are washed 3×, and PNPP substrate is added at 20 uL/well, and reactions are stopped, and optical density is measured using a colorimetric microplate reader set to 405 nm.

Compared with B3, B4 is 2.6-fold lower in EC50: 0.0681 nM for the first, 0.0261 nM for the second. The second is the more potent here.

Going from B5 to B6, the EC50 falls from 0.0454 nM to 0.0182 nM (2.5-fold). The second is the more potent here.

B7 gave an EC50 of 0.0108 nM.

The binders below were run against T4, human PD-1-ECD (human, UniProt Q15116 25-170) in the same assay as above.
T4 construct: extracellular domain
Description: as §2

T4 sequence (Q15116 25-170): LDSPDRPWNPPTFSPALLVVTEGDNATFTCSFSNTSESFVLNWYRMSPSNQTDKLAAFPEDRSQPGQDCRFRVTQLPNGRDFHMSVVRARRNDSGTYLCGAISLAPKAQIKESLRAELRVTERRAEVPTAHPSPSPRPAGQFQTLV

B3 and B4 are within 1.5-fold of each other in EC50: 0.007 nM for the first, 0.0097 nM for the second.

B5 and B6 are within 1.5-fold of each other in EC50: 0.0108 nM for the first, 0.0093 nM for the second.

For B7, the EC50 was 0.0303 nM.

Each binder was assayed against T2, Protein A (assay: ELISA, antibody titrated on goat anti-human-kappa, Biotin-Protein A at 0.5 ug/ml).
Description: as §1

Going from B1 to B2, the EC50 rises from 0.56 nM to 0.98 nM (1.7-fold). The first is the more potent here.
